Source: patent publication US20250197495A1 (Bristol-Myers Squibb, published 2025)

Biological target: T1, cynomolgus LAG-3 (cynomolgus)
T1 construct: whole, on cells; also called primate LAG-3
Assay: flow cytometry on transfected CHO cells and activated cynomolgus T cells; which cell type gives which end is not stated

B1: BMS-986016 (antibody, human IgG4 S228P, kappa, V domains shown)
VH: QVQLQQWGAGLLKPSETLSLTCAVYGGSFSDYYWNWIRQPPGKGLEWIGEINHRGSTNSNPSLKSRVTLSLDTSKNQFSLKLRSVTAADTAVYYCAFGYSDYEYNWFDPWGQGTLVTVSS
VL: EIVLTQSPATLSLSPGERATLSCRASQSISSYLAWYQQKPGQAPRLLIYDASNRATGIPARFSGSGSGTDFTLTISSLEPEDFAVYYCQQRSNWPLTFGQGTNLEIKR
notes: Fully human IgG4 with the stabilizing hinge mutation S228P; also called anti-LAG-3 antibody
- EC50: 21.5 to 34.3 nM
